Results: article PMC6686231
pKd: −log10 of the molar value.

Key:
[1] = target: TbRpf2 (T. brucei homologue of Rpf2), endogenous (T. brucei (endogenous in 10×-Ty-TbRrs1 cells)); test: co-IP; whole-cell extract of 10×-Ty-TbRrs1 T. brucei cells, beads with anti-P34/P37, anti-TbL5 or anti-TbRpf2 antibody, anti-Ty Western blot of pellet and supernatant; without RNase A
[2] = target: TbL5 (T. brucei homologue of ribosomal protein L5), endogenous (T. brucei (endogenous in 10×-Ty-TbRrs1 cells)); test: as above
[3] = target: P34/P37 (trypanosome-specific proteins); test: as above
[4] = target: TbRpf2 (T. brucei homologue of Rpf2), endogenous (T. brucei (endogenous in 10×-Ty-TbRrs1 cells)); test: co-IP; whole-cell extract of 10×-Ty-TbRrs1 T. brucei cells, beads with anti-P34/P37, anti-TbL5 or anti-TbRpf2 antibody, anti-Ty Western blot of pellet and supernatant; cellular RNA digested with RNase A
[5] = target: TbL5 (T. brucei homologue of ribosomal protein L5), endogenous (T. brucei (endogenous in 10×-Ty-TbRrs1 cells)); test: as above
[6] = target: P34/P37 (trypanosome-specific proteins); test: as above
[7] = target: recombinant P34 (T. brucei); test: co-IP; recombinant TbRrs1 incubated with recombinant P34, TbL5 or TbRpf2, precipitated with anti-P34, anti-L5 or anti-Rpf2 antibody, with or without in vitro-transcribed 5S rRNA; anti-His Western blot of pellet and supernatant
[8] = target: recombinant TbRpf2 (T. brucei); test: as above
[9] = target: recombinant TbL5 (T. brucei); test: as above
[10] = system: (His)6-TbRpf2 (Trypanosoma brucei); test: filter binding; conditions: without TbRrs1; text also cites ref 11; Filter binding with radiolabeled 5S rRNA, triplicate; buffer, salt, pH and temperature not given (as in ref 9)
[11] = system: SUMO-TbRrs1 (Trypanosoma brucei); test: filter binding; conditions: Filter binding with radiolabeled 5S rRNA, triplicate; buffer, salt, pH and temperature not given (as in ref 9)
[12] = system: TbRpf2 (coexpressed, untagged);(His)6-TbRrs1 (coexpressed) (Trypanosoma brucei;Trypanosoma brucei); test: filter binding; conditions: coexpressed complex; Filter binding with radiolabeled 5S rRNA, triplicate; buffer, salt, pH and temperature not given (as in ref 9)

“10×-Ty-TbRrs1 (Trypanosoma brucei homologue of regulator of ribosome synthesis 1, Ty-tagged at one copy of the gene) (natural protein)” showed an amount in the pellet relative to pellet plus supernatant [1] of 0.02, an amount in the pellet relative to pellet plus supernatant [2] of 0.24 and an amount in the pellet relative to pellet plus supernatant [3] of 0.06. The amount in the pellet relative to pellet plus supernatant [4] was 0.58, the amount in the pellet relative to pellet plus supernatant [5] was 0.63 and the amount in the pellet relative to pellet plus supernatant [6] was 0.61.
For “SUMO-TbRrs1 (recombinant) (natural protein)”, the amount in the pellet relative to pellet plus supernatant, with 5S rRNA [7] was 0.71, the amount in the pellet relative to pellet plus supernatant, without 5S rRNA [7] was 0.77 and the amount in the pellet relative to pellet plus supernatant, with 5S rRNA [8] was 0.65. The amount in the pellet relative to pellet plus supernatant, without 5S rRNA [8] was 0.53, the amount in the pellet relative to pellet plus supernatant, with 5S rRNA [9] was 0.74 and the amount in the pellet relative to pellet plus supernatant, without 5S rRNA [9] was 0.78.
For T. brucei 5S rRNA, the pKd [10] was 7.77, the pKd [11] was 7.26 and the pKd [12] was 7.76.
